The values below come from patent US10813788B2, “Implantable therapeutic device” (ForSight Vision4, Inc., priority 2009, dated 2020).

Where “and” joins values, the source holds several entries; their conditions need not be identical. Equal entries are not always repeated.

For series [1] the following is noted: amino acid side chain; cited from earlier work.
A short description of series [2]: RRI for Avastin of porous frits characterised by gas flow, Example 17C (Table 7). Type of series: physicochemical. The text has this: The flow through the porous structure can be measured with a decay time of the gas pressure, for example with the flow rate across the porous structure with a pressure drop across the porous frit structure, as described herein. The flow rate and RRI can be determined based on the media grade of the material, for example as commercially available media grade material available from Mott Corp. The therapeutic agent can be measured through the porous structure, or a similar test molecule. […] Based on the teachings described herein, a person of ordinary skill in the art can conduct experiments to determine empirically the correspondence of flow rate with a gas to the release rate of the therapeutic agent.

A short description of series [3]: Measured release of Avastin through porous frit structures, Examples 12-13. Format: physicochemical.
The nature of series [4]: Osmolarity of saline and commercial formulations (Table 1B, calculations). The conditions noted are these: Summary of Calculations. Type of series: physicochemical. The text has this:
The formulation of therapeutic agent injected into therapeutic device 100 may comprise many known formulations of therapeutic agents, and the formulation therapeutic agent comprises an osmolarity suitable for release for an extended time from device 100.
The vitreous humor of the eye comprises an osmolarity of about 290 mOsm to about 320 mOsm. Formulations of therapeutic agent having an osmolarity from about 280 mOsm to about 340 mOsm are substantially isotonic and substantially iso-osmotic with respect to the vitreous humor of the eye. Although the formulations listed in Table 1B are substantially iso-osmotic and isotonic with respect to the vitreous of the eye and suitable for injection into the therapeutic device, the formulation of the therapeutic agent injected into the therapeutic device can be hypertonic (hyper-osmotic) or hypotonic (hypo-osmotic) with respect to the tonicity and osmolarity of the vitreous. […]

Series [5] in a line: Measured release of Avastin through porous frit structures, Examples 12-13. Format: physicochemical. The following applies: for RRI (mm): single devices; for determined RRI: reservoir 20 uL. From the text: For the analysis of data up to 130 days, the first data point is excluded from the fit because the model assumes the maximum delivery rate occurs at time zero while there is some startup time often associated with measured release profiles. The startup time may be related to the time it takes to displace all of the air in the frit. Use of different techniques to displace the air in the frit may reduce the startup time.

A short description of series [6]: Solubility of triamcinolone acetonide. The following applies: suspension, in the buffer at 37° C. when implanted.
[7] abbreviates: Frit #3 (0.038 x 0.029 in), reservoir 37 uL, up to 130 days.

With `N[C@@H](CS)C(=O)O` [L-Cysteine], the “pKa of side chain” value in series [1] is given as 8.28.
For the molecule bevacizumab [Avastin], the RRI was 0.014 in series [2] (Table 7: media grade 0.1, O.D. 0.038 in, length 0.029 in); 0.019 in series [2] (Table 7: media grade 0.2, O.D. 0.031 in, length 0.049 in); 0.034 and 0.033 in series [2] (Table 7: media grade 0.2, O.D. 0.038 in, length 0.029 in); 0.053 mm in series [3] (Frit #6, reservoir 20 uL, to about 90 days, FIG. 23A-1). Also, the “RRI (mm), Mean” value in series [3] (Frit #2 (0.031 x 0.049 in), reservoir 37 uL, up to 45 days) is 0.02 mm and 0.020 mm; in series [3] (Frit #3 (0.038 x 0.029 in), reservoir 37 uL, up to 45 days), 0.034 mm; in series [3] (setting [7]) it was 0.035 mm; in series [5] (Frit #2 (0.031 x 0.049 in), reservoir 37 uL, up to 130 days), 0.024 mm. Further, the “RRI (mm), Mean for SS < 2” value turned out to be 0.014 mm in series [3] (Frit #2, reservoir 37 uL, up to 45 days); 0.030 mm in series [3] (Frit #3, reservoir 37 uL, up to 45 days); 0.014 mm in series [5] (Frit #2, reservoir 37 uL, up to 130 days); 0.030 mm in series [5] (Frit #3, reservoir 37 uL, up to 130 days). In addition, the “RRI (mm)” value was 0.027 mm and 0.034 mm and 0.033 mm and 0.044 mm and 0.030 mm and 0.043 mm in series [3] (Frit #3 (0.038 x 0.029 in, media grade 0.2 um), 25 mg/mL Avastin, reservoir 37 uL, 37 C, up to 45 days, single devices); 0.031 mm and 0.030 mm and 0.029 mm and 0.034 mm and 0.044 mm and 0.045 mm in series [5] (setting [7]); 0.018 mm and 0.022 mm in series [5] (Table 5A: 16 uL reservoir, 25 mg/mL Avastin, Frit #2 (0.031 x 0.049 in, media grade 0.2 um, 316L SS), 37 C); 0.015 mm and 0.018 mm in series [5] (Table 5A: 33 uL reservoir, 25 mg/mL Avastin, Frit #2 (0.031 x 0.049 in, media grade 0.2 um, 316L SS), 37 C). Moreover, the “release rate (RRI)” value in series [3] (Frit #5, media grade 0.1, reservoir 20 uL, to about 90 days, FIG. 24A-1) was 0.038 mm. Moreover, the “Osm” value in series [4] is 0.182 M. Also, the “determined RRI” value in series [5] (Frit #5 (0.038 x 0.029 in, media grade 0.1 um), 25 mg/mL Avastin, 37 C, FIG. 24A) stood at 0.03; in series [5] (Frit #6 (0.038 x 0.029 in, media grade 0.2 um), 25 mg/mL Avastin, 37 C, FIG. 23A), 0.05 mm.
`N[C@@H](CC(=O)O)C(=O)O` [L-Aspartic Acid]: the “pKa of side chain” value in series [1] is recorded as 3.8.
On to `N=C(N)NCCC[C@H](N)C(=O)O` [L-Arginine], for which the “pKa of side chain” value in series [1] is 12.0.
With `CC1(C)O[C@@H]2C[C@H]3[C@@H]4CCC5=CC(=O)C=C[C@]5(C)[C@@]4(F)[C@@H](O)C[C@]3(C)[C@]2(C(=O)CO)O1` [triamcinolone acetonide], in series [6], the solubility entry is given as “approximately 19 ug/mL”.
